Measured values published in patent publication US20180021429A1, “ANTICANCER AGENTS OR ANTIMETASTATIC AGENTS USING FSTL1 AND COMBINATION DRUG THEREOF” (PHARMA FOODS INTERNATIONAL CO., LTD., priority 2015, published 2018).
Numbering of substitutions follows the chain as printed. “Also recorded” adds a separate entry of the source.

T1: FSTL1 (Homo sapiens, UniProt Q12841)
T1 sequence (Q12841 21-308): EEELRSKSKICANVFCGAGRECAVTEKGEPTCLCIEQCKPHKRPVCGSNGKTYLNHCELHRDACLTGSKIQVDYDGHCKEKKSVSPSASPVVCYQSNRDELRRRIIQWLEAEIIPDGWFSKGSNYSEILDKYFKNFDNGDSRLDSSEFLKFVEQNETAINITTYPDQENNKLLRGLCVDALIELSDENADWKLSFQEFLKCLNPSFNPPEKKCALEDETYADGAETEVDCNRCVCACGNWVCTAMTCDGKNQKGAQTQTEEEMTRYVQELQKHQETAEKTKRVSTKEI

T2: mouse FSTL1 (Mus musculus, UniProt Q62356)
T2 construct: AAA linker + 10xHis (C); made in house; host or cells: Expi293 (transient expression; purified from culture supernatant on HisPur Cobalt Resin)
T2 sequence (Q62356 with tags, fused parts or gaps): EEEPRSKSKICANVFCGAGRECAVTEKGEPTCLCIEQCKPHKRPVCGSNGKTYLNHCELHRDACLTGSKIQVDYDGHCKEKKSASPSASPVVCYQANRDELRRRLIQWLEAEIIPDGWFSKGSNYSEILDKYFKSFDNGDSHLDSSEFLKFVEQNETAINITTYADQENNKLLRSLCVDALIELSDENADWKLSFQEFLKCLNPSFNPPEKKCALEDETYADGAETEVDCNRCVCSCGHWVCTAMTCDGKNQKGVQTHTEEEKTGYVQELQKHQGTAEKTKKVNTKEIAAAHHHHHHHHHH

B1: #13: chicken-mouse chimeric anti-FSTL1 antibody clone; variable regions SEQ ID NO: 815 (light), 817 (heavy) (antibody, V domains shown)
VH: AVTLDESGGGLQTPGGGLSLVCKASGFTFSSVTMQWVRQAPGKGLEWVASICSGSSTYYGPAVKGRATISRDNGQNTVRLQLNNLRAEDTATYYCAKIVGRGRWSCTSAAYNIDAWGHGTEVIVSS
VL: ASTQPSSVSANPGETVKITCSGGGNNYGWYQQKSPGSAPVTVIYNNNNRPSNIPSRFSGSKSGSTNTLTITGVQAEDEAVYYCGSYDSSSDSGIFGAGTTLTVL
modifications: mouse constant regions
B2: #33: chicken-mouse chimeric anti-FSTL1 antibody clone; variable regions SEQ ID NO: 823 (light), 825 (heavy) (antibody, V domains shown)
VH: AVTLDESGGGLQTPGGGLSLVCKASGFTFSSFNMNWVRQAPGKGLEYVAEISGTGSSTYYGSAVKGRATISRDNGQSTVRLQLNNLRAEDTATYFCARGDGAYSIDAWGHGTEVIVSS
VL: ASTQPSSVSANPGETVEITCSGDSSYYGWFQQKSPGSAPVTVIYDNTNRPSDIPSRFSGSKSGSTATLTITGVRAEDEAVYYCGGYDSSTYDGIFGAGTTLTVL
modifications: mouse constant regions
B3: #6-55: chicken-mouse chimeric anti-FSTL1 antibody clone; variable regions SEQ ID NO: 783 (light), 785 (heavy) (antibody, V domains shown)
VH: AVTLDESGGGLQTPGGALSLVCKGSGFTFTSVTMQWVRQAPGKGLEWVASVCSGSSTYYAPAVKGRATISRDNGQSTVRLQLSNLRPEDTGTYYCAKIAGRARWSCTSAAYNIDAWGHGTEVIVSS
VL: ASTQPSSVSAIPGETVKITCSGGGNNYGWYQQRSPGSAPVTVIYYNDNRPSNIPSRFSGSTSGSTSTLTITGVQADDEAIYYCGSWDSNTDSGIFGAGTTLTVL
modifications: mouse constant regions
B4: #7-34: chicken-mouse chimeric anti-FSTL1 antibody clone; variable regions SEQ ID NO: 787 (light), 789 (heavy) (antibody, V domains shown)
VH: B1 VH
VL: B1 VL with N45Y, K61T, N66S, D87E, S88G, S90T
modifications: mouse constant regions
B5: #8-4: chicken-mouse chimeric anti-FSTL1 antibody clone; variable regions SEQ ID NO: 795 (light), 797 (heavy) (antibody, V domains shown)
VH: AVTLDESGGGLQTPGGGLSLVCKGSGFTLSSFNMFWVRQAPGKGLEWVAGVGKDGGTAYGAAVDGRATISRDSGQSTVRLQLNNLRAEDTGTYFCAKAAGGCSYSWCGAYVGDLDAWGHGTEVIVSS
VL: ASSQPSSVSANPGETVKITCSGGSGYYYGWYQQKSPGSAPVTVIYNNDNKPSDIPSRFSGSKSGSTGTLTITGVQVEDEAVYFCGGYDNSGTGIFGAGTTLTVL
modifications: mouse constant regions
B6: #5-8: chicken-mouse chimeric anti-FSTL1 antibody clone; variable regions SEQ ID NO: 771 (light), 773 (heavy) (antibody, V domains shown)
VH: AVTLDESGGGLQTPGGGLSLVCKGSGFTFSSFNMFWVRQAPGKGLEWVAGIGKDGVPKYGTAVDGRATISKDNGQSTMRLQLNNLRAEDTGTYFCAKAAGGCSYDWCGIYTGDIDTWGHGTEVIVSS
VL: ASTQPSSVSANPGEAVKITCSGGSGSYYGWYQQKSPGSAPVTVIYNNNQRPSDIPSRFSGSKSGSTATLTITGVQAEDEAVYFCGGYDSSTGHGGIFGAGTTLTVL
modifications: mouse constant regions
B7: #8-1: chicken-mouse chimeric anti-FSTL1 antibody clone; variable regions SEQ ID NO: 791 (light), 793 (heavy) (antibody, V domains shown)
VH: B6 VH with G17A, T61A, T111A
VL: B6 VL with T91S
modifications: mouse constant regions

molecular target: T1, FSTL1; experiment: Biacore T-200 affinity of mouse chimeric antibodies for human FSTL1 (Example 33); format: binding; conditions: not given
Experimental: (§1) The mouse chimeric antibodies were immobilized onto Sensor Chip CM5 (GE Healthcare Japan Corp., BR-1005-30) using Mouse Antibody Capture Kit (GE Healthcare Japan Corp., BR-1008-38), and their affinity for human FSTL1 was calculated using Biacore T-200 (GE Healthcare Japan Corp.).
First, the exhaustive activity comparison of the obtained antibodies was conducted with the human FSTL1 concentration fixed to 10 μg/ml (Table 33-1, FIG. 122).
Next, the KD values of clone #6-55, #7-34, and #13 presumed to have high affinity in FIG. 122 were calculated with the antigen concentration adjusted to 0 to 20 μg/ml (Table 35-2).

Row | Molecule | affinity in an assay system using surface plasmon resonance
1 | B1 | strong affinity
2 | B2 | strong affinity
3 | B3 | strong affinity

molecular target: T1, FSTL1; experiment: Affinity of mouse chimeric antibodies for human FSTL1, Biacore T-200 (Example 33); format: binding; conditions: not given
Experimental: as §1
First, the exhaustive activity comparison of the obtained antibodies was conducted with the human FSTL1 concentration fixed to 10 μg/ml (Table 33-1, FIG. 58).
Next, the KD values of clone #6-55, #7-34, and #13 presumed to have high affinity in FIG. 58 were calculated with the antigen concentration adjusted to 0 to 20 μg/ml (Table 35-2).
First, the exhaustive activity comparison of the obtained antibodies was conducted with the human FSTL1 concentration fixed to 10 μg/ml (Table 33-1, FIG. 90).
Next, the KD values of clone #6-55, #7-34, and #13 presumed to have high affinity in FIG. 90 were calculated with the antigen concentration adjusted to 0 to 20 μg/ml (Table 35-2).

Row | Molecule | affinity in an assay system using surface plasmon resonance
4 | B1 | strong affinity
5 | B2 | strong affinity
6 | B3 | strong affinity
7 | B4 | strong affinity

molecular target: T1, FSTL1; experiment: Affinity of mouse chimeric antibodies, Biacore T-200 (Example 33); format: binding; conditions: not given
Experimental: as §1
First, the exhaustive activity comparison of the obtained antibodies was conducted with the human FSTL1 concentration fixed to 10 μg/ml (Table 33-1, FIG. 28).
Next, the KD values of clone #6-55, #7-34, and #13 presumed to have high affinity in FIG. 28 were calculated with the antigen concentration adjusted to 0 to 20 μg/ml (Table 35-2).

Row | Molecule | affinity in surface plasmon resonance assay
8 | B1 | strong affinity
9 | B2 | strong affinity
10 | B3 | strong affinity

molecular target: T2, mouse FSTL1; experiment: ELISA binding activity of purified antibody against mouse FSTL1 (Example 2); conditions: FIG. 1B/31B
Experimental: The reactivity of the obtained antibody clones described above with FSTL1 was evaluated by ELISA under the following conditions.
(Table 2 ELISA conditions for binding activity evaluation of purified antibody) Antibodies used: anti-dinitrophenyl (DNP) antibody (negative control), #5-2, #5-3, #5-8, #5-10, #5-43, #6-55, and #7-34
FIGS. 2 and 3 show results of evaluating binding activity under the condition of Table 3 as to clones differing in screening and antibody purification timings.
Antibodies used: anti-dinitrophenyl (DNP) antibody (negative control), #5-2, #5-3, #5-8, #5-10, #5-43, #6-55, and #7-34
FIGS. 32 and 33 show results of evaluating binding activity under the condition of Table 3 as to clones differing in screening and antibody purification timings.

Row | Molecule | binding activity against mouse FSTL1
11 | B3 | specific and equivalently strong binding activity
12 | B4 | specific and equivalently strong binding activity

same assay, conditions: FIG. 3B/33B

Row | binding activity against mouse FSTL1 | Molecule
13 | no binding activity | B5
14 | no binding activity | B6

Row | Molecule | binding activity against mouse FSTL1
15 | B7 | slightly exhibited binding activity; also recorded: very slightly exhibited binding activity
